Experimental data from patent publication US20240002495A1 (MITSUBISHI TANABE PHARMA, published 2024).
Changes are numbered by the printed parent chain.

B1: A25-2E04 (Fab) (Fab, V domains shown)
VH: EVQLLESGGGLVQPGGSLRLSCAASGFTFSNYYMHWVRQAPGKGLEWVSSISARSSYIYYADSVKGRFTISRDNSKNTLYLQMNSLRAEDTAVYYCARLATRNNAFDIWGQGTLVTVSS
VL: QSVLTQPPSASGTPGQRVTISCSGSCSNIGRNAVNWYQQLPGTAPKLLIYASNMRVIGVPDRFSGSKSGTSASLAISGLRSEDEADYYCEAWDDSQKGVVFGGGTKLTVL
notes: Fab secreted by E. coli, tested as culture supernatant; also called V11
B2: A27-1C06 (Fab) (Fab, V domains shown)
VH: B1 VH with N103H, N104S
VL: B1 VL with C26S, R31N, V56R, I57L, E90G, G98A, V99F
notes: Fab secreted by E. coli, tested as culture supernatant; also called V22
B3: A25-3H04 (Fab) (Fab, V domains shown)
VH: B1 VH with N31R, R54Q, Y57H, K65E, N103Q
VL: B1 VL with C26S, V56R, I57S, E90S, G98V
notes: Fab secreted by E. coli, tested as culture supernatant; also called V17
B4: A28-2C06 (Fab) (Fab, V domains shown)
VH: B1 VH with D62G, A100G, N103R, N104V
VL: B1 VL with C26S, V56G, I57M, E90S, G98V
notes: Fab secreted by E. coli, tested as culture supernatant; also called V25
B5: A28-2H06 (Fab) (Fab, V domains shown)
VH: B1 VH with R54L, I58R, N103R, N104V
VL: B1 VL with C26S, R31N, V56R, I57L, E90A, G98A, V99L
notes: Fab secreted by E. coli, tested as culture supernatant; also called V28
B6: A25-3G05 (Fab) (Fab, V domains shown)
VH: B1 VH with N31H, R54L, K65R, N103R, N104D
VL: B1 VL with C26S, R31N, V56G, I57L, E90G, G98V, V99F
notes: Fab secreted by E. coli, tested as culture supernatant; also called V16
B7: A26-2A05 (Fab) (Fab, V domains shown)
VH: B1 VH with N103H, N104G
VL: B1 VL with C26S, R31N, V56R, I57M, E90A, G98A, V99F
notes: Fab secreted by E. coli, tested as culture supernatant; also called V19
B8: A28-2F01 (Fab) (Fab, V domains shown)
VH: B1 VH with A53S, Y57H, I58Q, D62G, A100G, T101L, N103H, N104D
VL: B1 VL with C26S, R31H, N35W, V56R, I57M, E90A, G98A
notes: Fab secreted by E. coli, tested as culture supernatant; also called V26
B9: A28-2G07 (Fab) (Fab, V domains shown)
VH: B1 VH with N31S, N103R, N104I
VL: B1 VL with C26S, V56R, I57P, E90S, G98A, V99G
notes: Fab secreted by E. coli, tested as culture supernatant; also called V27
B10: A25-2H11 (Fab) (Fab, V domains shown)
VH: B1 VH
VL: B1 VL with C26S, R31S, N35S, V56G, I57S, E90A, G98V
notes: Fab secreted by E. coli, tested as culture supernatant; also called V14
B11: A26-2B01 (Fab) (Fab, V domains shown)
VH: B1 VH with N103H
VL: B1 VL with C26S, R31N, V56R, I57L, E90A, G98A, V99W
notes: Fab secreted by E. coli, tested as culture supernatant; also called V20
B12: A28-1G07 (Fab) (Fab, V domains shown)
VH: B1 VH with I58R, N103H, N104S
VL: B1 VL with C26S, R31H, N35S, V56R, I57L, E90G, G98V
notes: Fab secreted by E. coli, tested as culture supernatant; also called V24
B13: A26-1F02 (Fab) (Fab, V domains shown)
VH: B1 VH with I58L, N103H, N104V
VL: B1 VL with C26S, R31N, V56R, I57P, G98A
notes: Fab secreted by E. coli, tested as culture supernatant; also called V18
B14: A28-1C08 (Fab) (Fab, V domains shown)
VH: B1 VH with N31R, N103R, N104D
VL: B1 VL with C26S, N35S, V56R, I57L, E90W, G98A
notes: Fab secreted by E. coli, tested as culture supernatant; also called V23
B15: A27-1A06 (Fab) (Fab, V domains shown)
VH: B1 VH with I58R, N103H, N104L
VL: B1 VL with C26S, R31N, V56R, I57P, E90A, G98V, V99F
notes: Fab secreted by E. coli, tested as culture supernatant; also called V21

The binders below were run against T1, biotinylated 6His tag-AviTag-linked mature human IL-33 (residues 112 to 270) (human, UniProt O95760 112-270, biotin on the AviTag portion (BirA)) (assay: SPR, IL-33 on chip, Fab supernatant as analyte).
T1 construct: made in E. coli; also called biotinylated human IL-33 protein
T1 sequence: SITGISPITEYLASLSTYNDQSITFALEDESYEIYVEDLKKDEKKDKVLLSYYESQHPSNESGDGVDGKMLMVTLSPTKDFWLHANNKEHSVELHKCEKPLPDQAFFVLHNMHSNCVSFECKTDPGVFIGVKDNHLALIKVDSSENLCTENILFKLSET
Experimental: (§1) The library after the enrichment was used to construct a library of Escherichia coli secreting and expressing Fab. The culture supernatants of several hundreds of clones of Escherichia coli were subjected to measurement of dissociation rate constant (koff) by surface plasmon resonance (SPR) (ProteOn XPR36, available from Bio-Rad Laboratories, Inc.). The biotinylated human IL-33 protein (4 μg/mL) and cynomolgus monkey IL-33 protein (4 μg/mL) were loaded as ligands on a sensor chip (NLC sensor chip, available from Bio-Rad Laboratories, Inc.), to immobilize the human IL-33 protein at an amount equivalent to 1300 to 1600 RU, and the cynomolgus monkeyIL-33 protein at an amount equivalent to 1100 to 1500 RU. The culture supernatant of Escherichia coli was then loaded thereon as analyte to obtain a sensorgram with association phase of one minute and dissociation phase of 10 to 30 minutes. The sensorgram was subjected to interspot correction and blank correction using an SPR data analysis program (ProteOn Manager v3.1.0, available from Bio-Rad Laboratories, Inc.), and then values of koff were determined by off-rate analysis of Langmuir model.

Binder	Human IL-33 Binding Amount (RU)	koff
B1	195 RU	1.27e-05 s⁻¹
B2	294 RU	1e-05 s⁻¹
B3	0.62 RU	1e-05 s⁻¹
B4	123 RU	1e-05 s⁻¹
B5	349 RU	1e-05 s⁻¹
B6	135 RU	1.34e-05 s⁻¹
B7	153 RU	1e-05 s⁻¹
B8	289 RU	1e-05 s⁻¹
B9	289 RU	1e-05 s⁻¹
B10	534 RU	1.22e-05 s⁻¹
B11	364 RU	1e-05 s⁻¹
B12	165 RU	1e-05 s⁻¹
B13	96 RU	1e-05 s⁻¹
B14	156 RU	1e-05 s⁻¹
B15	306 RU	1e-05 s⁻¹

Target: T2, 6His-AviTag-linked cynomolgus monkey IL-33 (residues 112 to 269) (cynomolgus monkey, UniProt O95760 112-269 (human entry), biotin on the AviTag portion (BirA) in the SPR of Example 7; used without biotinylation in Example 10)
T2 construct: GenBank EHH57404 printed; also called cynomolgus monkey IL-33 protein; mature cynomolgus monkey IL-33
T2 chain: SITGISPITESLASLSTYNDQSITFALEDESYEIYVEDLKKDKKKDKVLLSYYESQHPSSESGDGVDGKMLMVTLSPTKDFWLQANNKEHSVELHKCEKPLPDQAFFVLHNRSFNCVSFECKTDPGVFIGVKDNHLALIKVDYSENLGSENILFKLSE
Assay: SPR, IL-33 on chip, Fab supernatant as analyte
Experimental: as §1

Binder	Cynomolgus Monkey IL-33 Binding Amount (RU)	koff
B1	199 RU	1e-05 s⁻¹
B2	304 RU	1.14e-05 s⁻¹
B3	179 RU	1e-05 s⁻¹
B4	134 RU	1e-05 s⁻¹
B5	317 RU	1e-05 s⁻¹
B6	143 RU	2.02e-05 s⁻¹
B7	147 RU	1e-05 s⁻¹
B8	258 RU	1e-05 s⁻¹
B9	259 RU	1.14e-05 s⁻¹
B10	492 RU	2.57e-05 s⁻¹
B11	363 RU	1e-05 s⁻¹
B12	173 RU	1.05e-05 s⁻¹
B13	100 RU	1e-05 s⁻¹
B14	144 RU	1e-05 s⁻¹
B15	320 RU	1e-05 s⁻¹
